This passage reports self-cleavage results from the RNAGym collection of RNA variant scans (doi:10.7554/elife.90254).

Sequences and labels used below:
B1: OR4K15 (parent)
chain: GUUAACGGUCAUAGGCCAUGGAAACUAGGAGCACCAUUUCGCUGCCAGUGAAGAAAUGAACAAAGAAAAUCUGGGCCAGGCAGGCAUCAAAAGAAAUAGUCUUGCGCUCAACCAGAAAGUCUGUAAUCAUUUUAAGGGUA

Variants of B1 are the subject of this data set. Put plainly: self-cleavage, relative activity (ratio to wild type); higher = more cleavage; in vitro, sequencing; the parent is a self-cleaving ribozyme.
For U12C U131C, the self-cleavage came to 1.28.
The value for U72A A129G was 0.08; that for C40U A114U was 0.1.
The value for U37A A60U was 1.8; that for A22G U132A was 1.93.
In the case of U127A U139C it was 2.29.
As to A116U G138U, the self-cleavage turned out to be 0.03.
Consider U43C C88U, for which the self-cleavage is 1.59.
The value for A55G G58A was 1.63; that for A64G G123A was 1.66.
In the case of G7U A118G it was 1.38; in that of A66G U130G, 0.2.
In the case of A59G A110C it was 0.44; in that of A23G A55C, 1.33; in that of A60G A63G, 1.35.
Take A18U A135G: the self-cleavage worked out at 1.36.
In the case of A62U U100C it was 2.34; in that of A92G G123A, 2.51.
Turning to U19G A126G, the self-cleavage worked out at 1.18.
Consider U103A A126G, for which the self-cleavage was 0.34.
Turning to A11G A13U, the self-cleavage came out at 0.72.
The value for U9A A129U was 1.02.
In the case of A24G U87C it was 1.18.
In the case of U37C G75A it was 0.08.
A27G A33C: the self-cleavage is 1.32.
Regarding G20A U37C, the self-cleavage came to 0.64.
The value for G44A G74A was 0.17; that for U70C C101G was 0.11.
The value for A78U U87G was 0.09; that for G7A C112U was 0.02; that for A69G U139C was 1.24.
The value for C6U U131C was 0.08; that for A51G A140G was 1.62; that for A68G A118G was 0.77.
Take A134U: the self-cleavage is 1.26.
The value for U72A C105U was 0.04; that for U103G U127C was 0.
Regarding A24C A118G, the self-cleavage came out at 0.96.
Regarding G15U U87A, the self-cleavage was 1.44.
The value for A22G A30U was 1.9.
In the case of U70C A91G it was 0.6; in that of A98G A114U, 0.02; in that of A60G U102A, 0.99.
The value for A30G A36U was 1.32; that for A22G A60U was 0.77.
On to U72C U131G, for which the self-cleavage is 0.28.
Consider A96U U127C, for which the self-cleavage turned out to be 1.7.
As for A55C U72C, the self-cleavage turned out to be 0.24.
In the case of A94C A116U, the self-cleavage is 0.18.
With C10U A68G, the self-cleavage amounted to 0.34.
With A63U A94U, the self-cleavage worked out at 1.96.
The value for G53A A78U was 0.52; that for A67G A118G was 0.95; that for G44A U127C was 1.58.
In the case of U37C A98G it was 0.8.
The value for A22G A135G was 1.54; that for C61U A116G was 0.39.
A24G U43C: the self-cleavage came out at 1.37.
In the case of U19A U38C, the self-cleavage was found to be 1.98.
In the case of U87C A135G it was 1.81; in that of A63G U124A, 0.72; in that of U97A A140G, 1.98.
As to A62U U120C, the self-cleavage was 1.
G1U U39A: the self-cleavage was found to be 1.74.
The value for A60G A111U was 0.11.
The value for A135G A140G was 0.95.
Consider U37C G104A, for which the self-cleavage amounted to 0.03.
With A5G G83A, the self-cleavage is 1.54.
As for A90G U139C, the self-cleavage was found to be 1.2.
The value for A5U G29A was 1.2; that for U2A U43G was 1.11; that for G93C A98G was 1.57.
Regarding A62U A89G, the self-cleavage was determined as 1.95.
In the case of A90U U132A it was 0.72.
A89G A91G: the self-cleavage came to 1.49.
For A69U U97A, the self-cleavage was determined as 2.51.
In the case of A68G A96C, the self-cleavage was 1.42.
The value for A89U A111U was 0.13; that for A63C U131C was 1.99; that for C6U A68G was 0.79.
For C35A C112U, the self-cleavage turned out to be 0.03.
The value for G115U A126U was 0.25; that for C32A A47U was 1.05.
The value for C32A A47G was 0.49; that for A4G A86U was 0.95; that for A13G A23G was 1.3.
In the case of U3C A66G it was 1.45; in that of G29A A47G, 0.87.
With A5G U108A, the self-cleavage came out at 0.05.
The value for A78U U122C was 0.14; that for C76A A94G was 0.06.
With G48U A110G, the self-cleavage is 0.2.
In the case of A23G A27G it was 0.89; in that of A18G G44A, 1.66.
The value for A56U U103A was 0.25; that for C105U was 0.16; that for A98G U133C was 0.65.
With A60G A96U, the self-cleavage was determined as 1.96.
For A63U U127C, the self-cleavage came out at 1.25.
In the case of A82G A117G it was 0.85; in that of A13G U37A, 0.82; in that of U39C A118U, 0.78.
In the case of C6U U43A it was 0.96; in that of A11G G79A, 0.16.
As to A36G G84A, the self-cleavage is 1.88.
The value for A67C A126G was 2.11.
As to U9A A66G, the self-cleavage is 1.
Take U19A A134U: the self-cleavage was 0.89.
In the case of A68U A89G it was 1.53.
Regarding G1A U132C, the self-cleavage amounted to 0.94.
The value for A51G C71A was 0.89.
Turning to A60U G83A, the self-cleavage was found to be 1.65.
Take A24G A59G: the self-cleavage came out at 1.23.
In the case of U2C C46U it was 0.54; in that of G21A U102C, 2.29.
U57A U70A: the self-cleavage worked out at 0.62.
In the case of U43A A116G it was 0.55; in that of U39C U120C, 0.95.
In the case of C77U A89U it was 2.73.
The value for G21A A24G was 1.35; that for G20A A116G was 0.47; that for A22C U108A was 0.02.
For the variant A47G A126G, the self-cleavage stood at 1.
Take U72C U103A: the self-cleavage was 0.08.
Take U26C U87A: the self-cleavage came to 1.6.
The value for A24G U120C was 0.35.
In the case of A30U A111G it was 0.02; in that of G20U A129G, 1.17.
The value for U108C A117C was 0.06.
On to U49A A98U, for which the self-cleavage was determined as 0.26.
In the case of A36G U120G it was 1.29; in that of A18G A118U, 0.64.
The value for C32U U139C was 1.64; that for A51G A55U was 1.2.
The value for A125G U131C was 0.2; that for A68G C105U was 0.14.
For A69G U130C, the self-cleavage came to 0.5.
Regarding U2C A116U, the self-cleavage amounted to 0.
Take A68U A92G: the self-cleavage stood at 0.44.
A62G U131C: the self-cleavage came to 1.29.
The value for A24G A114U was 0.19; that for A82U U127C was 0.13; that for U12C A129G was 0.89.
On to A114G A140G, for which the self-cleavage was 0.26.
For the variant A90G A129G, the self-cleavage was 0.22.
In the case of U43C C121U it was 2.03; in that of A92C U124C, 0.52; in that of A90G C107A, 0.02.
Consider A52C A62G, for which the self-cleavage is 0.91.
The value for U103G G104A was 0.59; that for U2A G104A was 0.16; that for A22G C105U was 0.25.
For the variant G80U U139A, the self-cleavage came to 0.09.
For U97C A98C, the self-cleavage is 0.75.
A33G A86G: the self-cleavage was 0.7.
The value for G15A U103C was 0.82; that for A30U A66U was 0.65.
In the case of A30U A66G it was 1.68.
In the case of U19C C32U it was 1.32; in that of U37C C109A, 0.34; in that of U43A U49A, 0.87.
As for A90U A134U, the self-cleavage was 1.96.
As for U37A A89G, the self-cleavage worked out at 0.43.
As to U124C A134G, the self-cleavage worked out at 1.11.
In the case of A82G U132C it was 0.5.
In the case of U102A A114G it was 0.43.
Turning to U2A A18G, the self-cleavage came to 0.91.
